Source: patent US20050130130A1 (INSTITUT NATIONAL DE LA SANTE ET DE LA RECHERCHE MEDICALE …, published 2005)

Target: T1, p50.2 KAR (human, UniProt P43631 22-304)
T1 construct: whole, on cells; also called KAR of D.F. NK cells; KAR p50.2
Assay: anti-CD158 immunoprecipitation from NK cell lysates, immunotransfer with anti-FcεRIγ

T1 sequence (P43631 22-304): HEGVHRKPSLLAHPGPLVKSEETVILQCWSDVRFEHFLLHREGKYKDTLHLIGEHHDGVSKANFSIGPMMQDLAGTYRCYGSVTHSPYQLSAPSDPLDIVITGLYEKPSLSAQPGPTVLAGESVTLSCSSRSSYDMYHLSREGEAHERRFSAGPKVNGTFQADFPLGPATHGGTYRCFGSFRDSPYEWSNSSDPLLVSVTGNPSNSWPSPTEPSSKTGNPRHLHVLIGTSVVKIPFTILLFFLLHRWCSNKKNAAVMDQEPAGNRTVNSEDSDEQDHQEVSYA

B1: FcεRIγ (other, human, UniProt P30273 19-86, looked up)
chain: LGEPQLCYILDAILFLYGIVLTLLYCRLKIQVRKAAITSYEKSDGVYTGLSTRNQETYETLKHEKPPQ
notes: whole, on cells; Endogenous protein in NK cell lysates; also called FcεRI gamma
  binding result: no binding
